B1: protease, type XXVII: commercial enzyme preparation, (Nagarase) (protein, UniProt P00782 108-382, looked up)
Subtilisin BPN': AQSVPYGVSQIKAPALHSQGYTGSNVKVAVIDSGIDSSHPDLKVAGGASMVPSETNPFQDNNSHGTHVAGTVAALNNSIGVLGVAPSASLYAVKVLGADGSGQYSWIINGIEWAIANNMDVINMSLGGPSGSAALKAAVDKAVASGVVVVAAAGNEGTSGSSSTVGYPGKYPSVIAVGAVDSSNQRASFSSVGPELDVMAPGVSIQSTLPGNKYGAYNGTSMASPHVAGAAALILSKHPNWTNTQVRSSLENTTTKLGDSFYYGKGLINVQAAAQ
B2: protease, type X: commercial enzyme preparation, source B. thermoproteoliticus rokko (protein, UniProt P00800 233-548, looked up)
Thermolysin: ITGTSTVGVGRGVLGDQKNINTTYSTYYYLQDNTRGNGIFTYDAKYRTTLPGSLWADADNQFFASYDAPAVDAHYYAGVTYDYYKNVHNRLSYDGNNAAIRSSVHYSQGYNNAFWNGSQMVYGDGDGQTFIPLSGGIDVVAHELTHAVTDYTAGLIYQNESGAINEAISDIFGTLVEFYANKNPDWEIGEDVYTPGISGDSLRSMSDPAKYGDPDHYSKRYTGTQDNGGVHINSGIINKAAYLISQGGTHYGVSVVGIGRDKLGKIFYRALTQYLTPTSNFSQLRAAAVQSATDLYGSTSQEVASVKQAFDAVGVK
B3: protease, type VIII: commercial enzyme preparation, source Bacillus licheniformis (protein, UniProt P00780 106-379, looked up)
Subtilisin Carlsberg: AQTVPYGIPLIKADKVQAQGFKGANVKVAVLDTGIQASHPDLNVVGGASFVAGEAYNTDGNGHGTHVAGTVAALDNTTGVLGVAPSVSLYAVKVLNSSGSGSYSGIVSGIEWATTNGMDVINMSLGGASGSTAMKQAVDNAYAKGVVVVAAAGNSGSSGNTNTIGYPAKYDSVIAVGAVDSNSNRASFSSVGAELEVMAPGAGVYSTYPTNTYATLNGTSMASPHVAGAAALILSKHPNLSASQVRNRLSSTATYLGSSFYYGKGLINVEAAAQ
B4: protease, type XXIV: commercial enzyme preparation, source bacterial (subtil. Carlsberg) (protein, UniProt P00780 106-379, looked up)
Subtilisin Carlsberg: B3 Subtilisin Carlsberg
B5: protease, trypsin porcine pancreas: commercial trypsin, source porcine pancreas (protein, UniProt P00761 9-231, looked up)
Trypsin: IVGGYTCAANSIPYQVSLNSGSHFCGGSLINSQWVVSAAHCYKSRIQVRLGEHNIDVLEGNEQFINAAKIITHPNFNGNTLDNDIMLIKLSSPATLNSRVATVSLPRSCAAAGTECLISGWGNTKSSGSSYPSLLQCLKAPVLSDSSCKSSYPGQITGNMICVGFLEGGKDSCQGDSGGPVVCNGQLQGIVSWGYGCAQKNKPGVYTKVCNYVNWIQQTIAAN

How the values were obtained:
Type in all cases: biochemical
[1] = Enzyme screens for resolution of racemic N-(methoxycarbonyl)-4-keto-D,L-proline methyl ester (Example 1); conditions: 0.100M racemate, 5.0 to 50 mg/mL enzyme, 25° C., optimum; for conv. (percent conversion of the racemate): 0.20M sodium succinate pH 6.0, 5 h or 0.20M sodium acetate pH 5.0, 24 h; for % ee (enantiomeric excess of the D-isomer; L-isomer with porcine liver esterase): pH 6.0, 5 h or pH 5.0, 24 h
Procedure: An aqueous solution (1.0 mL) containing 0.100M racemic N-(methoxycarbonyl)-4-keto-D,L-proline methyl ester in either 0.20M sodium succinate (pH 6.0) or 0.20M sodium acetate (pH 5.0) was mixed with 5.0 to 50 mg/mL of commercial enzyme preparations (listed in the table below) at 25° C. […] The dichloromethane extract was then analyzed by chiral gas chromatography on a Chiraldex G-TA column (Advanced Separation Technologies, Inc., 50 m×0.32 mm ID) to determine the percent conversion of the racemate, and the enantiomeric excess of the N-(methoxycarbonyl)-4-keto-D-proline methyl ester.

[2] = Enzyme screens for resolution of racemic N-(acetyl)-4-keto-D,L-proline methyl ester (Example 7, comparative); conditions: 0.100M racemate, 5 h, 5.0 to 30 mg/mL enzyme, 25° C.; for conv. (percent conversion of the racemate): 0.20M sodium succinate pH 6.0; for % ee (enantiomeric excess of the D-isomer): pH 6.0
Procedure: An aqueous solution (1.0 mL) containing 0.100M racemic N-(acetyl)-4-keto-D,L-proline methyl ester in 0.20M sodium succinate (pH 6.0) was mixed with 5.0 to 30 mg/mL of commercial enzyme preparations (listed in the table below) at 25° C. […] The dichloromethane extract was then analyzed by chiral gas chromatography on a Chiraldex G-TA column (Advanced Separation Technologies, Inc., 50 m×0.32 mm ID) to determine the percent conversion of the racemate, and the enantiomeric excess of the N-(acetyl)-4-keto-D-proline methyl ester.

[3] = Enzyme screens for resolution of diastereomeric mixture CHDP(MEMC)/THLP(MEMC) (Example 9); conditions: 0.050M each isomer, 5 h or 24 h, 5.0 to 50 mg/mL enzyme, 25° C.; for conv. (percent conversion of the diastereomeric mixture): 0.100M potassium phosphate pH 7.0; for % de (diastereomeric excess of the D-isomer, CHDP(MEMC)): pH 7.0
Procedure: (§1) An aqueous solution (1.0 mL) containing 0.050M N-(methoxycarbonyl)-trans-4-hydroxy-L-proline methyl ester and 0.050M N-(methoxycarbonyl)-cis-4-hydroxy-D-proline methyl ester in 0.100M potassium phosphate (pH 7.0) was mixed with 5.0 to 50 mg/mL of commercial enzyme preparations (listed in the table below) at 25° C. The reactions were analyzed after 5 h or 24 h by removal of a 0.200 mL sample and mixing with an equivalent volume of 0.100M propionic acid (HPLC internal standard) in water. The resulting solution was filtered through a 10K molecular weight cut-off filter to remove the enzyme and the filtrate analyzed by high pressure liquid chromatography on a HPX-87H column (Bio-Rad, 30 cm×7.8 mm) to determine the percent conversion of each isomer of the diastereomeric mixture, and the diastereomeric excess of the N-(methoxycarbonyl)-cis-4-hydroxy-D-proline methyl ester.

[4] = Enzyme screens for resolution of diastereomeric mixture CHLP(MEMC)/THLP(MEMC) (Example 13); conditions: 0.050M each isomer, 5 h, 5.0 to 50 mg/mL enzyme, 25° C.; for conv. (percent conversion of the diastereomeric mixture): 0.100M potassium phosphate pH 7.0; for % de (diastereomeric excess of the cis-L-isomer): pH 7.0
Procedure: as §1, with “solution” for “solution (1.0 mL)”, “N-(methoxycarbonyl)-cis-4-hydroxy-L-proline” for “N-(methoxycarbonyl)-cis-4-hydroxy-D-proline”, “5” for “5 h or 24”, “of” for “of each isomer of”

[5] = Enzyme screens for resolution of racemic N-(methoxycarbonyl)-4,4-dimethoxy-D,L-proline methyl ester (Example 8, comparative); conditions: 0.100M racemate, 6 h or 17 h, 5.0 to 30 mg/mL enzyme, 25° C.; for conv. (percent conversion of the racemate): 0.25M potassium phosphate pH 7.0; for % ee (enantiomeric excess of the D-isomer): pH 7.0
Procedure: An aqueous solution (1.0 mL) containing 0.100M racemic N-(methoxycarbonyl)-4,4-dimethoxy-D,L-proline methyl ester in 0.25M potassium phosphate (pH 7.0) was mixed with 5.0 to 30 mg/mL of commercial enzyme preparations (listed in the table below) at 25° C. […] The ethyl acetate extract was then analyzed by chiral gas chromatography on a Chiraldex G-TA column (Advanced Separation Technologies, Inc., 50 m×0.32 mm ID) to determine the percent conversion of the racemate, and the enantiomeric excess of N-(methoxycarbonyl)-4,4-dimethoxy-D-prolinemethyl ester.

Molecule | conv. (percent conversion of the racemate) [1] [%] | % ee (enantiomeric excess of the D-isomer; L-isomer with porcine liver esterase) [1] [%] | conv. (percent conversion of the racemate) [2] [%] | % ee (enantiomeric excess of the D-isomer) [2] [%] | conv. (percent conversion of the diastereomeric mixture) [3] [%] | % de (diastereomeric excess of the D-isomer, CHDP(MEMC)) [3] [%] | conv. (percent conversion of the diastereomeric mixture) [4] [%] | % de (diastereomeric excess of the cis-L-isomer) [4] [%] | conv. (percent conversion of the racemate) [5] [%] | % ee (enantiomeric excess of the D-isomer) [5] [%]
protease, pepsin: commercial enzyme preparation, source porcine stomach mucosa | 0 | 0 | 0 | 0 | 0 | 0 | 0 | 0 | – | –
protease, chymopapain: commercial enzyme preparation, source papaya latex | 0 | 0 | 0 | 0 | 0 | 0 | 0 | 0 | – | –
B1 | 27 | 21 | – | – | 2 | 4 | 17 | 16 | 44 | 30
B2 | 0 | 0 | 0 | 0 | 0 | 0 | 0 | 0 | – | –
B3 | 32 | 23 | – | – | 16 | 16 | 4 | 6 | – | –
B4 | 17 | 18 | – | – | 16 | 16 | 6 | 5 | 42 | 22
B5 | 0 | 0 | 0 | 0 | 0 | 0 | 0 | 0 | – | –
